The text below walks through data of PMC3347502.

The target of the test is long-chain neurotoxin NTII/I. Kind of test: NMR titration.

“α7ED/C116S/DTES (extracellular domain of human α7 nicotinic acetylcholine receptor with Cys116Ser an (domain or fragment)” gave a stoichiometry N of 2.

One may read the stoichiometry N as the number of molecules, sites or subunits per partner or assembly.
